This note sets out measurements from publication PMC3594540 (Nature structural & molecular biology, 2013).

The labels stand for the following.
B2: human PLCβ3 (residues 10–1234) (enzyme)
chain: ALQLEPPTVVETLRRGSKFIKWDEETSSRNLVTLRVDPNGFFLYWTGPNMEVDTLDISSIRDTRTGRYARLPKDPKIREVLGFGGPDARLEEKLMTVVSGPDPVNTVFLNFMAVQDDTAKVWSEELFKLAMNILAQNASRNTFLRKAYTKLKLQVNQDGRIPVKNILKMFSADKKRVETALESCGLKFNRSESIRPDEFSLEIFERFLNKLCLRPDIDKILLEIGAKGKPYLTLEQLMDFINQKQRDPRLNEVLYPPLRPSQARLLIEKYEPNQQFLERDQMSMEGFSRYLGGEENGILPLEALDLSTDMTQPLSAYFINSSHNTYLTAGQLAGTSSVEMYRQALLWGCRCVELDVWKGRPPEEEPFITHGFTMTTEVPLRDVLEAIAETAFKTSPYPVILSFENHVDSAKQQAKMAEYCRSIFGDALLIEPLDKYPLAPGVPLPSPQDLMGRILVKNKKRHRPSAGGPDSAGRKRPLEQSNSALSESSAATEPSSPQLGSPSSDSCPGLSNGEEVGLEKPSLEPQKSLGDEGLNRGPYVLGPADREDEEEDEEEEEQTDPKKPTTDEGTASSEVNATEEMSTLVNYIEPVKFKSFEAARKRNKCFEMSSFVETKAMEQLTKSPMEFVEYNKQQLSRIYPKGTRVDSSNYMPQLFWNVGCQLVALNFQTLDVAMQLNAGVFEYNGRSGYLLKPEFMRRPDKSFDPFTEVIVDGIVANALRVKVISGQFLSDRKVGIYVEVDMFGLPVDTRRKYRTRTSQGNSFNPVWDEEPFDFPKVVLPTLASLRIAAFEEGGKFVGHRILPVSAIRSGYHYVCLRNEANQPLCLPALLIYTEASDYIPDDHQDYAEALINPIKHVSLMDQRARQLAALIGESEAQAGQETCQDTQSQQLGSQPSSNPTPSPLDASPRRPPGPTTSPASTSLSSPGQRDDLIASILSEVAPTPLDELRGHKALVKLRSRQERDLRELRKKHQRKAVTLTRRLLDGLAQAQAEGRCRLRPGALGGAADVEDTKEGEDEAKRYQEFQNRQVQSLLELREAQVDAEAQRRLEHLRQALQRLREVVLDANTTQFKRLKEMNEREKKELQKILDRKRHNSISEAKMRDKHKKEAELTEINRRHITESVNSIRRLEEAQKQRHDRLVAGQQQVLQQLAEEEPKLLAQLAQECQEQRARLPQEIRRSLLGEMPEGLGDGPLVACASNGHAPGSSGHLSGADSESQEENTQL

Assay [1] deals with B2. The assay is described as follows: cell-based or functional assay.
The target in assay [2] is T1, murine Gαq (residues 7–359), biotinylated for bead binding (murine, UniProt P21279 7-359).
T1 sequence: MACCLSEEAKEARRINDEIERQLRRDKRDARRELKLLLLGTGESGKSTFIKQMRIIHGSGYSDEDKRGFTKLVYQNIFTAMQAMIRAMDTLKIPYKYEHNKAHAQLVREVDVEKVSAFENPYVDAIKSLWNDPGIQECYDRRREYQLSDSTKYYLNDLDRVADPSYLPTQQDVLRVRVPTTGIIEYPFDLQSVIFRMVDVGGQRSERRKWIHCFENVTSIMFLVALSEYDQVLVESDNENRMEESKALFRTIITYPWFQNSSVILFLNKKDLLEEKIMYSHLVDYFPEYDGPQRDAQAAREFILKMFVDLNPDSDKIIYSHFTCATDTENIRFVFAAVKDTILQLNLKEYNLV
The assay is described as follows: flow cytometry protein interaction assay.

The target in assay [3] is B2. Kind of assay: crystal structure.

B1: Gαq-ΔN (domain or fragment)
chain: RRELKLLLLGTGESGKSTFIKQMRIIHGSGYSDEDKRGFTKLVYQNIFTAMQAMIRAMDTLKIPYKYEHNKAHAQLVREVDVEKVSAFENPYVDAIKSLWNDPGIQECYDRRREYQLSDSTKYYLNDLDRVADPSYLPTQQDVLRVRVPTTGIIEYPFDLQSVIFRMVDVGGQRSERRKWIHCFENVTSIMFLVALSEYDQVLVESDNENRMEESKALFRTIITYPWFQNSSVILFLNKKDLLEEKIMYSHLVDYFPEYDGPQRDAQAAREFILKMFVDLNPDSDKIIYSHFTCATDTENIRFVFAAVKDTILQLNLKEYNLV
modifications: biotinylated (b-Gαq, in the FCPIA)
For the molecule B1, in assay [1], the “EC50 of Gαq-stimulated PIP2 hydrolysis ([3H]-IP3 release from liposomes)” value amounted to 39 nM and the “Max specific activity of Gαq-stimulated PIP2 hydrolysis (liposomes)” value is 1600 nmol IP3/min/nmol PLCβ3.

The Ki is a dissociation constant, usually derived from enzyme kinetics or from competition with a known ligand. Higher therefore signals weaker binding. In assay [2], B2 gave a Ki of 220 nM.

B3: TEV-cleaved murine Gαq (residues 7–359) (natural protein)
chain: MACCLSEEAKEARRINDEIERQLRRDKRDARRELKLLLLGTGESGKSTFIKQMRIIHGSGYSDEDKRGFTKLVYQNIFTAMQAMIRAMDTLKIPYKYEHNKAHAQLVREVDVEKVSAFENPYVDAIKSLWNDPGIQECYDRRREYQLSDSTKYYLNDLDRVADPSYLPTQQDVLRVRVPTTGIIEYPFDLQSVIFRMVDVGGQRSERRKWIHCFENVTSIMFLVALSEYDQVLVESDNENRMEESKALFRTIITYPWFQNSSVILFLNKKDLLEEKIMYSHLVDYFPEYDGPQRDAQAAREFILKMFVDLNPDSDKIIYSHFTCATDTENIRFVFAAVKDTILQLNLKEYNLV
modifications: at least a fraction of the purified Gαq was palmitoylated (Cys9 and Cys10)
Take B3: in assay [3], the binding result is reported as “binds”.
